B1: protein 4.2 (natural protein, human (endogenous in erythrocytes), UniProt P16452 1-691, looked up)
chain: MGQALGIKSCDFQAARNNEEHHTKALSSRRLFVRRGQPFTIILYFRAPVRAFLPALKKVALTAQTGEQPSKINRTQATFPISSLGDRKWWSAVVEERDAQSWTISVTTPADAVIGHYSLLLQVSGRKQLLLGQFTLLFNPWNREDAVFLKNEAQRMEYLLNQNGLIYLGTADCIQAESWDFGQFEGDVIDLSLRLLSKDKQVEKWSQPVHVARVLGALLHFLKEQRVLPTPQTQATQEGALLNKRRGSVPILRQWLTGRGRPVYDGQAWVLAAVACTVLRCLGIPARVVTTFASAQGTGGRLLIDEYYNEEGLQNGEGQRGRIWIFQTSTECWMTRPALPQGYDGWQILHPSAPNGGGVLGSCDLVPVRAVKEGTLGLTPAVSDLFAAINASCVVWKCCEDGTLELTDSNTKYVGNNISTKGVGSDRCEDITQNYKYPEGSLQEKEVLERVEKEKMEREKDNGIRPPSLETASPLYLLLKAPSSLPLRGDAQISVTLVNHSEQEKAVQLAIGVQAVHYNGVLAAKLWRKKLHLTLSANLEKIITIGLFFSNFERNPPENTFLRLTAMATHSESNLSCFAQEDIAICRPHLAIKMPEKAEQYQPLTASVSLQNSLDAPMEDCVISILGRGLIHRERSYRFRSVWPENTMCAKFQFTPTHVGLQRLTVEVDCNMFQNLTNYKSVTVVAPELSA
modifications: N-terminal glycine myristoylated

Experiment in all cases: cryo-EM structure
Data set [1] has as its target T1, band 3 anion exchanger (human (endogenous in erythrocytes), UniProt P02730 1-911).
T1 sequence (looked up): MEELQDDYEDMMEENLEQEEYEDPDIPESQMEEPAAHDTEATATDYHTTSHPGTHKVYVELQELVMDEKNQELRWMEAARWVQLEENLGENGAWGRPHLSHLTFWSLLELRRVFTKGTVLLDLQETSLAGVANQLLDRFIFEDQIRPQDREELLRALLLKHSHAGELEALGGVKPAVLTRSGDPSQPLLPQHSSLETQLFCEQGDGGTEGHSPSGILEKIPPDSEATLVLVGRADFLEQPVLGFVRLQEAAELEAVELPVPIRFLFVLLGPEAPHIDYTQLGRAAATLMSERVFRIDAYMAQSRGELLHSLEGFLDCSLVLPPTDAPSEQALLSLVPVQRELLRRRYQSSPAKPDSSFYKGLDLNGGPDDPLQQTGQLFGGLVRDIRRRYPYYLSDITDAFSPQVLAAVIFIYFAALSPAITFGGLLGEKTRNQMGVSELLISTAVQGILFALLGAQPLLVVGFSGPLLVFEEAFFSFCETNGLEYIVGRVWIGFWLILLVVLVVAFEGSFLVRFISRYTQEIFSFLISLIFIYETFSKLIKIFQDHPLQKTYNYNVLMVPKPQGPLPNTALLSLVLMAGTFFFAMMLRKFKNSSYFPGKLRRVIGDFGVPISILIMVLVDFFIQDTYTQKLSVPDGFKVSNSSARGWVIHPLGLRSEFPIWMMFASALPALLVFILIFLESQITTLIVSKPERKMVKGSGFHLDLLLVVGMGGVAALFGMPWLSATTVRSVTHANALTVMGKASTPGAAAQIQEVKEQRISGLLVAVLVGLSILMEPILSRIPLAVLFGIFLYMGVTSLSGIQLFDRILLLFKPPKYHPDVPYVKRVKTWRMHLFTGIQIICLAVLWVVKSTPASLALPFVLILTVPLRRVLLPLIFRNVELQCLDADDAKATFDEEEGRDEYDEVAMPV

Data set [2] deals with T1, band 3 anion exchanger. The source holds these as a separate data set.
The next data set concerns the target T2, RhCE (human (endogenous in erythrocytes), UniProt P18577 1-417).
T2 sequence (looked up): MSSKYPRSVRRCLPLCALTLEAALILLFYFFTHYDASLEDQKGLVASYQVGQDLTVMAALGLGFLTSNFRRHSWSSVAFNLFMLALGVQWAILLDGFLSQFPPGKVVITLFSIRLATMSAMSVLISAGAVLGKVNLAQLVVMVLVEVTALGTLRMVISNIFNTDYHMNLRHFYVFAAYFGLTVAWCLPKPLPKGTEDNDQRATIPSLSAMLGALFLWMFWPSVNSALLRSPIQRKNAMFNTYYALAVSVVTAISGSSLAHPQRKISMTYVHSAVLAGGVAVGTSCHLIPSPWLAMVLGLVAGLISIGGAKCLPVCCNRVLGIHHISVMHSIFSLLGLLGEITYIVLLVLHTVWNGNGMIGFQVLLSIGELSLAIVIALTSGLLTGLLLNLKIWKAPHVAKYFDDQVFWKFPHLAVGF

The data set “cryo-EM structure” concerns the molecule itself.
The data set “protein 4.2” addresses B1.

A word on the stoichiometry N: it is the number of molecules, sites or subunits per partner or assembly.

For B1, the binding result in the data set with band 3 anion exchanger [1] is listed as “binds”.

B2: glycophorin A (natural protein, human (endogenous in erythrocytes), UniProt P02724 20-150, looked up)
chain: LSTTEVAMHTSTSSSVTKSYISSQTNDTHKRDTYAATPRAHEVSEISVRTVYPPEEETGERVQLAHHFSEPEITLIIFGVMAGVIGTILLISYGIRRLIKKSPSDVKPLPSPDTDVPLSSVEIENPETSDQ
Consider B2, for which the “stoichiometry N” value in the data set with band 3 anion exchanger [2] was determined as 1 GPA per band 3 protomer.

B3: RhAG (natural protein, human (endogenous in erythrocytes), UniProt Q02094 1-409, looked up)
chain: MRFTFPLMAIVLEIAMIVLFGLFVEYETDQTVLEQLNITKPTDMGIFFELYPLFQDVHVMIFVGFGFLMTFLKKYGFSSVGINLLVAALGLQWGTIVQGILQSQGQKFNIGIKNMINADFSAATVLISFGAVLGKTSPTQMLIMTILEIVFFAHNEYLVSEIFKASDIGASMTIHAFGAYFGLAVAGILYRSGLRKGHENEESAYYSDLFAMIGTLFLWMFWPSFNSAIAEPGDKQCRAIVNTYFSLAACVLTAFAFSSLVEHRGKLNMVHIQNATLAGGVAVGTCADMAIHPFGSMIIGSIAGMVSVLGYKFLTPLFTTKLRIHDTCGVHNLHGLPGVVGGLAGIVAVAMGASNTSMAMQAAALGSSIGTAVVGGLMTGLILKLPLWGQPSDQNCYDDSVYWKVPKTR
Take B3: the “stoichiometry N” value with RhCE turned out to be 2 RhAG per RhCE. Also, the binding result in “cryo-EM structure” was “binds”.

B4: aquaporin-1 (natural protein, human (endogenous in erythrocytes), UniProt P29972 1-269, looked up)
chain: MASEFKKKLFWRAVVAEFLATTLFVFISIGSALGFKYPVGNNQTAVQDNVKVSLAFGLSIATLAQSVGHISGAHLNPAVTLGLLLSCQISIFRALMYIIAQCVGAIVATAILSGITSSLTGNSLGRNDLADGVNSGQGLGIEIIGTLQLVLCVLATTDRRRRDLGGSAPLAIGLSVALGHLLAIDYTGCGINPARSFGSAVITHNFSNHWIFWVGPFIGGALAVLIYDFILAPRSSDLTDRVKVWTSGQVEEYDLDADDINSRVEMKPK
modifications: lipid-like density attached to Cys-87, assigned as a palmitoylation site
In the case of B4, the binding result with protein 4.2 is on record as “binds”.

The values are drawn from PMC10373098 (Nature structural & molecular biology, 2022).
